Reference: paper PMC8954794, “NMR Structure and Biophysical Characterization of Thermophilic Single-Stranded DNA Binding Protein from Sulfolobus Solfataricus”

Target: T1, SsoSSB1-114 (Sulfolobus solfataricus, UniProt Q97W73 1-114)
T1 sequence: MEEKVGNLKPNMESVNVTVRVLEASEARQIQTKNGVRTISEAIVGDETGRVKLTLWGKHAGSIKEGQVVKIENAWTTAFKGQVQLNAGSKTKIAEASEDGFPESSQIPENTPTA
Assay: ITC; 25 C; n = 1.009; Buffer A: 100 mM NaCl, 20 mM MES pH 6.5; ITC at 25 C (500 uM dA15 into 50 uM protein); NMR with 10% D2O at 25 and 50 C (SsoSSB12-114 at 25 C only)
Conditions: protein: recombinant; tags: C-terminal TEV-His6 vector; single strand

Binder: AAAAAAAAAAAAAAA (ssDNA) [dA(15)]
- Kd: 1750 nM
